From patent US20160058880

T1: PhAc-ALGP-doxorubicin
T1 chain: ALGP

T2: N-succinyl-beta-alanyl-L-leucyl-L-alanyl-L-leucyl-doxorubicin
T2 chain: ALAL

T3: LGP-Dox
T3 chain: LGP

T4: NH2-Gly-Pro-Doxorubicin
T4 chain: GP

T5: Succinyl-βALPF-doxorubicin
T5 chain: ALPF

T6: PhAc-AIGP-doxorubicin
T6 chain: AIGP

T7: PhAc-ALAL-doxorubicin
T7 chain: ALAL

T8: PhAc-KLGP-doxorubicin
T8 chain: KLGP

T9: PhAc-TSGP-doxorubicin
T9 chain: TSGP

T10: PhAc-GPGP-doxorubicin
T10 chain: GPGP

T11: PhAc-ALAF-doxorubicin
T11 chain: ALAF

T12: PhAc-ALPF-doxorubicin
T12 chain: ALPF

T13: PhAc-DLGP-doxorubicin
T13 chain: DLGP

B1: CD26 (protein)
chain: SRKTYTLTDYLKNTYRLKLYSLRWISDHEYLYKQENNILVFNAEYGNSSVFLENSTFDEFGHSINDYSISPDGQFILLEYNYVKQWRHSYTASYDIYDLNKRQLITEERIPNNTQWVTWSPVGHKLAYVWNNDIYVKIEPNLPSYRITWTGKEDIIYNGITDWVYEEEVFSAYSALWWSPNGTFLAYAQFNDTEVPLIEYSFYSDESLQYPKTVRVPYPKAGAVNPTVKFFVVNTDSLSSVTNATSIQITAPASMLIGDHYLCDVTWATQERISLQWLRRIQNYSVMDICDYDESSGRWNCLVARQHIEMSTTGWVGRFRPSEPHFTLDGNSFYKIISNEEGYRHICYFQIDKKDCTFITKGTWEVIGIEALTSDYLYYISNEYKGMPGGRNLYKIQLSDYTKVTCLSCELNPERCQYYSVSFSKEAKYYQLRCSGPGLPLYTLHSSVNDKGLRVLEDNSALDKMLQNVQMPSKKLDFIILNETKFWYQMILPPHFDKSKKYPLLLDVYAGPCSQKADTVFRLNWATYLASTENIIVASFDGRGSGYQGDKIMHAINRRLGTFEVEDQIEAARQFSKMGFVDNKRIAIWGWSYGGYVTSMVLGSGSGVFKCGIAVAPVSRWEYYDSVYTERYMGLPTPEDNLDHYRNSTVMSRAENFKQVEYLLIHGTADDNVHFQQSAQISKALVDVGVDFQAMWYTDEDHGIASSTAHQHIYTHMSHFIKQCFSLP
B2: CD10 (recombinant human neprilysin, R&D systems, Ref 1182-ZN) (protein)
chain: DDGICKSSDCIKSAARLIQNMDATTEPCTDFFKYACGGWLKRNVIPETSSRYGNFDILRDELEVVLKDVLQEPKTEDIVAVQKAKALYRSCINESAIDSRGGEPLLKLLPDIYGWPVATENWEQKYGASWTAEKAIAQLNSKYGKKVLINLFVGTDDKNSVNHVIHIDQPRLGLPSRDYYECTGIYKEACTAYVDFMISVARLIRQEERLPIDENQLALEMNKVMELEKEIANATAKPEDRNDPMLLYNKMTLAQIQNNFSLEINGKPFSWLNFTNEIMSTVNISITNEEDVVVYAPEYLTKLKPILTKYSARDLQNLMSWRFIMDLVSSLSRTYKESRNAFRKALYGTTSETATWRRCANYVNGNMENAVGRLYVEAAFAGESKHVVEDLIAQIREVFIQTLDDLTWMDAETKKRAEEKALAIKERIGYPDDIVSNDNKLNNEYLELNYKEDEYFENIIQNLKFSQSKQLKKLREKVDKDEWISGAAVVNAFYSSGRNQIVFPAGILQPPFFSAQQSNSLNYGGIGMVIGHEITHGFDDNGRNFNKDGDLVDWWTQQSASNFKEQSQCMVYQYGNFSWDLAGGQHLNGINTLGENIADNGGLGQAYRAYQNYIKKNGEEKLLPGLDLNHKQLFFLNFAQVWCGTYRPEYAVNSIKTDVHSPGNFRIIGTLQNSAEFSEAFHCRKNSYMNPEKKCRVW

Experiments:
[1] = target: T1, PhAc-ALGP-doxorubicin
[2] = target: T2, N-succinyl-beta-alanyl-L-leucyl-L-alanyl …
[3] = target: T3, LGP-Dox
[4] = target: T4, NH2-Gly-Pro-Doxorubicin
[5] = target: T5, Succinyl-βALPF-doxorubicin
[6] = target: T6, PhAc-AIGP-doxorubicin
[7] = target: T7, PhAc-ALAL-doxorubicin
[8] = target: T8, PhAc-KLGP-doxorubicin
[9] = target: T9, PhAc-TSGP-doxorubicin
[10] = target: T10, PhAc-GPGP-doxorubicin
[11] = target: T11, PhAc-ALAF-doxorubicin
[12] = target: T12, PhAc-ALPF-doxorubicin
[13] = target: T13, PhAc-DLGP-doxorubicin

Protein	hydrolysis by purified CD26 [1]	hydrolysis by purified CD26 [2]	hydrolysis by purified CD26 [3]	conversion to Dox after 3 h incubation at 37° C. with purified CD26 [4]	cleavage by purified CD10 10 nM (grade; * = less than 5% of metabolites detected) [5]	cleavage by purified CD10 10 nM (grade) [6]	cleavage by purified CD10 10 nM (grade; * = less than 5% of metabolites detected) [7]	cleavage by purified CD10 10 nM (grade; * = less than 5% of metabolites detected) [8]	cleavage by purified CD10 10 nM (grade) [9]	cleavage by purified CD10 10 nM (grade) [10]	cleavage by purified CD10 10 nM (grade) [11]	cleavage by purified CD10 10 nM (grade) [12]	cleavage by purified CD10 10 nM (grade) [1]	cleavage by purified CD10 10 nM (grade) [13]	cleavage by purified CD10 10 nM (grade) [2]	cleavage by purified CD10 10 nM (grade) [3]
B1	Neither CD26 nor FAP hydrolized either PhAc-ALGP-Dox, Suc-βALAL-Dox or LGP-Dox	Neither CD26 nor FAP hydrolized either PhAc-ALGP-Dox, Suc-βALAL-Dox or LGP-Dox	Neither CD26 nor FAP hydrolized either PhAc-ALGP-Dox, Suc-βALAL-Dox or LGP-Dox	97% conversion to Dox after 3 h incubation at 37 °C												
B2					-*	+	-*	-*	-	-	+	-	+	-	+	-
